In US20250250357A1:
Blank lines part the entries; values can stand above or below the binder they belong to.

Tests used:
[1] = molecular target: monkey MSLN full-length protein (NCBI: XP_028696439.1) expressed on HEK293T-monkey MSLN cells (monkey); assay: FACS on HEK293T-monkey MSLN cells
[2] = molecular target: human MSLN full-length protein (NCBI: AAH09272.1) on stably transfected CHO-K1 or HEK293T cells (human) (UniProt Q13421); assay: FACS on CHO-K1-hMSLN-2C8 cells; antibody 100 nM
[3] = molecular target: human MSLN full-length protein (NCBI: AAH09272.1) on stably transfected CHO-K1 or HEK293T cells (human) (UniProt Q13421); assay: FACS on CHO-K1-hMSLN-2C8 cells; antibody 0.8 nM
[4] = molecular target: human MSLN full-length protein (NCBI: AAH09272.1) on stably transfected CHO-K1 or HEK293T cells (human) (UniProt Q13421); assay: FACS on CHO-K1-hMSLN-2C8 cells; antibody 0.00128 nM
[5] = molecular target: human MSLN full-length protein (NCBI: AAH09272.1) on stably transfected CHO-K1 or HEK293T cells (human) (UniProt Q13421); assay: FACS on CHO-K1-hMSLN-2C8 cells; antibody 20 nM
[6] = molecular target: human MSLN full-length protein (NCBI: AAH09272.1) on stably transfected CHO-K1 or HEK293T cells (human) (UniProt Q13421); assay: FACS on CHO-K1-hMSLN-2C8 cells; antibody […]
[7] = molecular target: human MSLN-R3-3 polypeptide (human); assay: ELISA; antibody 1 nM
[8] = molecular target: human MSLN full-length protein (NCBI: AAH09272.1) on stably transfected CHO-K1 or HEK293T cells (human) (UniProt Q13421); assay: FACS on CHO-K1-hMSLN-2C8 cells; antibody 0.032 nM
[9] = molecular target: human MSLN full-length protein (NCBI: AAH09272.1) on stably transfected CHO-K1 or HEK293T cells (human) (UniProt Q13421); assay: FACS on CHO-K1-hMSLN-2C8 cells; antibody 0.0064 nM
[10] = molecular target: human MSLN full-length protein (NCBI: AAH09272.1) on stably transfected CHO-K1 or HEK293T cells (human) (UniProt Q13421); assay: FACS on CHO-K1-hMSLN-2C8 cells; antibody 4 nM
[11] = molecular target: human MSLN-R3-3 polypeptide (human); assay: ELISA, coated antigen, antibody 0.1 nM
[12] = molecular target: human MSLN-R3-3 polypeptide (human); assay: ELISA, coated antigen, antibody 0.0001 nM
[13] = molecular target: human MSLN-R3-3 polypeptide (human); assay: ELISA, coated antigen, antibody 10 nM
[14] = molecular target: human MSLN-R3-3 polypeptide (human); assay: ELISA, coated antigen, antibody 1 nM
[15] = molecular target: human MSLN-R3-3 polypeptide (human); assay: ELISA, coated antigen, no antibody (blank)
[16] = molecular target: human MSLN-R3-3 polypeptide (human); assay: ELISA, coated antigen, antibody 0.01 nM
[17] = molecular target: human MSLN-R3-3 polypeptide (human); assay: ELISA, coated antigen, antibody 0.001 nM
[18] = molecular target: human MSLN-R3-3 polypeptide (human); assay: ELISA, coated antigen, antibody 100 nM
[19] = molecular target: human MSLN-R3 protein (Met487-Ser606 of NCBI AAH09272.1) expressed on HEK293T-hMSLN-R3 cells (human) (UniProt Q13421); assay: FACS on HEK293T-hMSLN-R3 cells
[20] = molecular target: human MSLN on OVCAR3 tumor cells (human) (UniProt Q13421); assay: FACS, OVCAR3 cells
human MSLN on OVCAR3 tumor cells (human), sequence (Q13421 other isoform, or with tags, fused parts or gaps): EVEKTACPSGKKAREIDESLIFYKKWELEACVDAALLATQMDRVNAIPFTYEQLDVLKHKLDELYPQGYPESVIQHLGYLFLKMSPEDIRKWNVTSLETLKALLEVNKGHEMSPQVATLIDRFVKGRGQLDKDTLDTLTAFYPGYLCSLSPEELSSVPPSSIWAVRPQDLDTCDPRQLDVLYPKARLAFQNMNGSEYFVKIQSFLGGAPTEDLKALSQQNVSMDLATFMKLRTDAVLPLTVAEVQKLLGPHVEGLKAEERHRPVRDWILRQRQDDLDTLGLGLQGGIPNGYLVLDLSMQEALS

human MSLN-R3 protein (Met487-Ser606 of NCBI AAH09272.1) expressed on HEK293T-hMSLN-R3 cells (human), sequence (Q13421 495-614): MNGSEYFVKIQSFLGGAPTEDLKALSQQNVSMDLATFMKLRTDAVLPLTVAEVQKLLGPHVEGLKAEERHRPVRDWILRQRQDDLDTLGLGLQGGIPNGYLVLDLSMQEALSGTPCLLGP

B1: S009-F2.58.8 (antibody, human IgG1, kappa, V domains shown)
VH: QVQLLQSGAELAKPGASVKLSCKASGYTFTSYWVHWVKQRPGQGLEWIGYINPNSGYTKYNQKFKDKATLTADKSSSTAYMQLSSLTYEDSAVYYCADHYYGSSRDYFDYWGQGTTLTVSS
VL: QIVLTQSPAIMSASPGEKVTMTCSASSSVSYMYWYQQRPGSSPRLLIYDTSNLASGVPVRFSGSGSGTSYSLTISRMEAEDAATYYCQQWNSYPYTFGGGTKLEIKR
- Maximum mean fluorescence intensity [1]: 1000

B4: S009-F1.59.1 (antibody, human IgG1, kappa, V domains shown)
VH: EVKLEGSGGGLVQPGGSMMLSCVATGFTFSSYWMNWVRQSPDRGLEWVAEIRLKSNGFAAFYAESVKGRFTISRDDSKSSVYLQMNNLRTEDTGIYYCTYFVHWGQGILVTVSE
VL: DIVLTQSPTSLAVSLGQRATISCRTSESVEYFGTILIQWYQQKPGQPPKLLIFGASNVESGVPARFSGSGSGTDFSLNIHPVEEEDIAMYFCQQNRKVPYTFGGGTTLELKR
- Maximum mean fluorescence intensity [1]: 1420

B5: S009-F1.62.9 (antibody, human IgG1, kappa, V domains shown)
VH: EVQLQQSGADLVKPGASVKLSCTVFGLNFKDTFMHWVRQRPEQGLEWIGRIDPANDNSIYGPKFQDKATITADTSSNTAYLHLSSLTSEDTAVYYCLYFDNWGHGTTLTVSS
VL: DIVMTQAASSEPVTPGESVSISCRSDKSLLHSNGHNYLYWFLQRPGQSPHLLIYRMSNLASGVPDRFSGSGSGTAFTLRISRVEAEDVGVYYCMQHLEYPLTFGAGTKLELKR
- Maximum mean fluorescence intensity [1]: 965

B6: S009-F2.47.1 (antibody, human IgG1, kappa, V domains shown)
VH: QVQLQQPGAELVKPGASVKLSCKASGYTFTSYWMHWVKQRPGQGLEWIGMIHPNSGSTNYNEKFKSKATLTVDKSSSTAYMQLSSLTSEDSAVYYCARPVVPYWYFDVWGTGTTVTVSS
VL: DIVMTQSQKFMSTTVGDRVSITCKASQNVGTAVAWYQQKPGQSPKLLIYSASNRYTGVPDRFTGSGSGTDFTLTISNMQSEDLADYFCQQSSSYPLTFGAGTKLELKR
- Maximum mean fluorescence intensity [19]: 4580

B7: F3.38.10-L2H3a (scFv, not shown: small tags and cut ends)
scFv: DIVMTQSPDSLAVSLGERATINCRSSQSLIHSDGNTYLQWYQQKPGQSPKLLIYKVSNRFSGVPDRFSGSGSGTDFTLTISSLQAEDVAVYYCSQTTHVPFTFGQGTKLEIKGGGGSGGGGSGGGGSEVQLVQSGAEVKKPGASVKVSCKASGYIFTDYYMNWVRQAPGQRLEWMGVINPKQGVISHNQKFKGRVTITVDKSANTAYMELSSLRSEDTAVYYCANYGSRFYAMDYWGQGTTVTVSS
- Maximum MFI [20]: 499 MFI

Next, values leading:

- FACS fluorescence intensity [2]: 7860
- FACS fluorescence intensity [3]: 767
- FACS fluorescence intensity [4]: 63
- FACS fluorescence intensity [5]: 6930
- FACS fluorescence intensity [6]: 264
- OD450 nm [7]: 0.07
- FACS fluorescence intensity [8]: 120
- FACS fluorescence intensity [9]: 70
- FACS fluorescence intensity [10]: 2960
B2: Tab107 (YP3, hIgG1) (antibody, V domains shown)
VH: QEQLVESGGGLVQPGASLTLTCTASGIDFSRYYMCWVRQAPGKGLEGIACIYIGGSGSTYYASWAKGRFTISKASSTTVTLQMTSLTAADTATYFCARGTNLNYIFRLWGPGTLVTVSS
VL: DVVMTQTPSPVSAAVGGTVTIKCQASQSINNGLAWYQQKPGQPPRLLIYSASNLESGVPSRFKGSGSGTEFTLTISDLECDDAATYYCQCIWDGNSYVNAFGGGTEVVVRT

- OD450 [11]: 0.08
- FACS fluorescence intensity [2]: 6720
- OD450 [12]: 0.06
- FACS fluorescence intensity [3]: 812
- FACS fluorescence intensity [4]: 68
- OD450 [13]: 1.35
- OD450 [14]: 0.33
- FACS fluorescence intensity [5]: 6270
- OD450 [15]: 0.07
- FACS fluorescence intensity [6]: 270
- OD450 nm [7]: 0.98
- FACS fluorescence intensity [8]: 119
- FACS fluorescence intensity [9]: 77
- OD450 [16]: 0.05
- OD450 [17]: 0.05
- FACS fluorescence intensity [10]: 2780
- OD450 [18]: 1.94
B3: Tab106 (YP218, hIgG1) (antibody, V domains shown)
VH: QQQLEESGGGLVKPEGSLTLTCKASGFDLGFYFYACWVRQAPGKGLEWIACIYTAGSGSTYYASWAKGRFTISKASSTTVTLQMTSLAAADTATYFCARSTANTRSTYYLNLWGPGTLVTVSS
VL: DVVMTQTPASVSEPVGGTVTIKCQASQRISSYLSWYQQKPGQRPKLLIFGASTLASGVPSRFKGSGSGTEYTLTISDLECADAATYYCQSYAYFDSNNWHAFGGGTEVVVRT
